One molecule from article PMC8103725 (FASEB BioAdvances, 2021) can be followed below.

The assay deals with HEG1–KRIT1 interaction (EGFP‐KRIT1 FERM domain binding to HEG1 cytoplasmic tail on beads) (Homo sapiens, UniProt O00522). Kind of assay: Flow cytometry bead assay for the HEG1–KRIT1 FERM domain interaction. Conditions: bead assay, compared with wild‐type KRIT1.
HEG1–KRIT1 interaction (EGFP‐KRIT1 FERM domain binding to HEG1 cytoplasmic tail on beads), sequence (O00522 417-736): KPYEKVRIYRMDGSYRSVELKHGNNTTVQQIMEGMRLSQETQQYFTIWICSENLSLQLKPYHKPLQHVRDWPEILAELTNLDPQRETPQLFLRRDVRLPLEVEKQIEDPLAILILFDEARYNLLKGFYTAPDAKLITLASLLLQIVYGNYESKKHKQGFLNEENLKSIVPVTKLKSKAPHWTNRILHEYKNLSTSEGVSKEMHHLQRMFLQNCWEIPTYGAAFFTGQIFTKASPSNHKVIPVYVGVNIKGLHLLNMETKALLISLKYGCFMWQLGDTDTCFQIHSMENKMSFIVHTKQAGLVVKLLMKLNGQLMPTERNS

B1: KRIT1 (L717,721A) mutant: EGFP‐KRIT1 FERM domain mutant with reduced affinity for HEG1 (protein)
chain: KPYEKVRIYRMDGSYRSVELKHGNNTTVQQIMEGMRLSQETQQYFTIWICSENLSLQLKPYHKPLQHVRDWPEILAELTNLDPQRETPQLFLRRDVRLPLEVEKQIEDPLAILILFDEARYNLLKGFYTAPDAKLITLASLLLQIVYGNYESKKHKQGFLNEENLKSIVPVTKLKSKAPHWTNRILHEYKNLSTSEGVSKEMHHLQRMFLQNCWEIPTYGAAFFTGQIFTKASPSNHKVIPVYVGVNIKGLHLLNMETKALLISLKYGCFMWQLGDTDTCFQIHSMENKMSFIVHTKQAGAVVKALMKLNGQLMPTERNS
modifications: left off: His6, N-terminal, state not stated | EGFP, N-terminal, kept
For the molecule B1, the “binding to HEG1” value is “dramatic reduction in binding”.
